Consider one molecule from patent publication US20240400717A1 (NATIONAL CHENG KUNG UNIVERSITY, published 2024).

One experiment concerns the target T1, recombinant human CHI3L1 (human, UniProt P36222 22-383).
T1 construct: also called rCHI3L1; human rCHI3L1
The experiment can be described thus: phage ELISA (3rd round single clone screening): coated protein, rescued phage supernatant, anti-M13-HRP, OD450.

The target of the next experiment is T2, mouse rCHI3L1 (mouse, UniProt Q61362 30-389, limits assumed).
T2 construct: also called mouse CHI3L1; murine CHI3L1
The description is as above.

T2 sequence (Q61362 30-389 limits assumed): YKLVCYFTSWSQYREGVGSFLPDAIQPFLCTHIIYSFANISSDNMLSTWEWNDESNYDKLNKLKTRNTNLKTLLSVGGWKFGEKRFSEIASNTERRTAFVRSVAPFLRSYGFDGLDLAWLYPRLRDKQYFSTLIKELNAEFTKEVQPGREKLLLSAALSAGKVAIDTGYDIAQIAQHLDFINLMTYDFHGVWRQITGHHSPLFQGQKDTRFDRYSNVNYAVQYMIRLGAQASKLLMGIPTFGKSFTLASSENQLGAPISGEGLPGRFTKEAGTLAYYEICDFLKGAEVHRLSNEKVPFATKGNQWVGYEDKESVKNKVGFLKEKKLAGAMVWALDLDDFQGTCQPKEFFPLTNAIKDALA
T1 sequence (P36222 22-383 limits assumed): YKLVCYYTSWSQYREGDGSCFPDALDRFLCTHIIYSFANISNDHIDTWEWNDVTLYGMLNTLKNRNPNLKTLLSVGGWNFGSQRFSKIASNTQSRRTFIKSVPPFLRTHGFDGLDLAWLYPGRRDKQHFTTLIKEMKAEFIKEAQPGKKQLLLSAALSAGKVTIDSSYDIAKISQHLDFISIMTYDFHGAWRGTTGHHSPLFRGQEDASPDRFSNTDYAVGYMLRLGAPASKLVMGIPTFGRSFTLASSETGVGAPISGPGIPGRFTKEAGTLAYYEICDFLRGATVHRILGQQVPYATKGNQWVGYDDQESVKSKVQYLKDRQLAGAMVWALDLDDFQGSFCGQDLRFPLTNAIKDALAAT

B1: anti-CHI3L1 clone 293R3-5 (antibody, human IgG1, V domains shown)
VH: EVQLVQSGAGVKKPGATVKISCKVSGYTFTDYYMHWVQQAPGKGLEWMGLVDPEDGETIYAEKFQGRVTITADTSTDTAYMELSSLRSEDTAVYYCATASPREEMPYYFDYWGQGTLVTVSS
VL: SYELTQPPSVSVSPGQTASITCSGDILADQYASWYQQKPGQSPVLVIYHDTKRPSGVPERFSGSTSGNTATLTISGTQAMDEAAYYCQAWDINTAWVFGGGTQLTVLG
notes: also called #hu 293R3-5
With B1, the binding result with recombinant human CHI3L1 is “binds”; with mouse rCHI3L1, “no binding”.
